Where no end group is shown, it is not given here.
B1: Phage-1203 (peptide)
peptide: YCDGHAPEFIRKCL
modifications: cysteine pairing not given here; also: displayed on phage by fusion to pIII, linker and pIII sequence not given here
B2: Phage-1197 (peptide)
peptide: YCEGHLWEYMKKCL
modifications: cysteine pairing not given here; also: displayed on phage by fusion to pIII, linker and pIII sequence not given here
B3: Phage-1205 (peptide)
peptide: YCDGHDARYMTKCL
modifications: cysteine pairing not given here; also: displayed on phage by fusion to pIII, linker and pIII sequence not given here
B4: Phage-1204 (peptide)
peptide: YCEGHAPQYMSKCL
modifications: cysteine pairing not given here; also: displayed on phage by fusion to pIII, linker and pIII sequence not given here
B5: Phage-1196 (peptide)
peptide: YCDGHAPIYMQKCL
modifications: cysteine pairing not given here; also: displayed on phage by fusion to pIII, linker and pIII sequence not given here
B6: Phage-1198 (peptide)
peptide: YCEGHDVQYMQKCL
modifications: cysteine pairing not given here; also: displayed on phage by fusion to pIII, linker and pIII sequence not given here
B7: Phage-1195 (peptide)
peptide: YCEGHIPAYMAKCL
modifications: cysteine pairing not given here; also: displayed on phage by fusion to pIII, linker and pIII sequence not given here
B8: Phage-1207 (peptide)
peptide: YCEGHSSAYMRKCL
modifications: cysteine pairing not given here; also: displayed on phage by fusion to pIII, linker and pIII sequence not given here
B9: Phage-1200 (peptide)
peptide: YCDGHLPRYMEKCM
modifications: cysteine pairing not given here; also: displayed on phage by fusion to pIII, linker and pIII sequence not given here
B10: Phage-1199 (peptide)
peptide: YCEGHSSEYLGKCL
modifications: cysteine pairing not given here; also: displayed on phage by fusion to pIII, linker and pIII sequence not given here
B11: Phage-1206 (peptide)
peptide: YCEGHSVEYILKCL
modifications: cysteine pairing not given here; also: displayed on phage by fusion to pIII, linker and pIII sequence not given here
B12: Phage-1201 (peptide)
peptide: YCDGHSSAYIDKCL
modifications: cysteine pairing not given here; also: displayed on phage by fusion to pIII, linker and pIII sequence not given here
B13: Phage-1202 (peptide)
peptide: YCEGHLPSYLAKCL
modifications: cysteine pairing not given here; also: displayed on phage by fusion to pIII, linker and pIII sequence not given here
B14: Phage-1222 (peptide)
peptide: YCFGHFPEYMAKCL
modifications: cysteine pairing not given here; also: displayed on phage by fusion to pIII, linker and pIII sequence not given here
notes: Tested as clonal phage supernatant
B15: Phage-1221 (peptide)
peptide: YCEGHSAIYIAKCM
modifications: cysteine pairing not given here; also: displayed on phage by fusion to pIII, linker and pIII sequence not given here
notes: as for B14
B16: Phage-1224 (peptide)
peptide: YCSGHSWAYIGKCL
modifications: cysteine pairing not given here; also: displayed on phage by fusion to pIII, linker and pIII sequence not given here
notes: as for B14
B17: Phage-1223 (peptide)
peptide: YCDGHTGMYISKCL
modifications: cysteine pairing not given here; also: displayed on phage by fusion to pIII, linker and pIII sequence not given here
notes: as for B14
B18: Phage-1225 (peptide)
peptide: YCAGHAAEYMWKCL
modifications: cysteine pairing not given here; also: displayed on phage by fusion to pIII, linker and pIII sequence not given here
notes: as for B14
B19: Phage-1217 (peptide)
peptide: YCEGHRPEYMANCL
notes: tested as crude clonal phage supernatant
B20: Phage-1215 (peptide)
peptide: YCEGHSWIYIAKCL
notes: as for B19
B21: Phage-1216 (peptide)
peptide: YCDGHLEVYMSKCL
notes: as for B19
B22: Phage-1213 (peptide)
peptide: YCEGHLREYMLKCL
notes: as for B19
B23: Phage-1210 (peptide)
peptide: YCAGHSQVYMWKCL
notes: as for B19
B24: Phage-1220 (peptide)
peptide: YCDGHVGAYMWKCL
notes: as for B19
B25: Phage-1211 (peptide)
peptide: YCEGHIEQYMRKCL
notes: as for B19
B26: Phage-1212 (peptide)
peptide: YCFGHAPEYLLKCL
notes: as for B19
B27: Phage-1218 (peptide)
peptide: YCEGHIEPYMQKCL
notes: as for B19
B28: Phage-1209 (peptide)
peptide: YCAGHSSEYLQKCL
notes: as for B19
B29: Phage-1219 (peptide)
peptide: YCDGHKPEYMDKCL
notes: as for B19
B30: Phage-1214 (peptide)
peptide: YCEGHSSVYLWKCL
notes: as for B19
B31: Phage-1208 (peptide)
peptide: YCDGHLAEYIQKCL
notes: as for B19

target: T1, Anti-CD28 Fab (SEQ ID NOs: 696, 697); test: phage ELISA; biotinylated anti-CD28 Fab on neutravidin plate, clonal phage supernatant, anti-M13 HRP
T1 construct: In the phage ELISA the Fab was biotinylated and captured on neutravidin coated plates
T1 sequence (VH, as listed by the source, chain 1 of 2): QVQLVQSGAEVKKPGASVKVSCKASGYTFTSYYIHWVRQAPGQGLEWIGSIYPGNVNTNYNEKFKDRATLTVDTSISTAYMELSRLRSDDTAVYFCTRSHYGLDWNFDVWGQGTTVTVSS
T1 sequence (VL, as listed by the source, chain 2 of 2): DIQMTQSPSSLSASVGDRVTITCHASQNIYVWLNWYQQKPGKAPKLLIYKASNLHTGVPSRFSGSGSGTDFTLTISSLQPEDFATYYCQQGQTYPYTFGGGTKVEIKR
Description: (§1) After panning, phage infected bacteria were plated out and colonies picked into 96 well blocks. Clonal phage was then amplified and separated from bacterial cells via centrifugation.
(§2) Clonal phage were harvested as crude supematants and screened via standard ELISAs. […] Prior to the addition of clonal phage, wells were incubated with blocking buffer and CD28 antigen or blocking buffer alone. Without washing or aspirating, clonal phage supematants were then added to the wells and incubated for a short time. Wells were then washed followed by detection of bound phage using a horse radish conjugated anti-M13 antibody. Clonal phage of interest were then sent for sequence analysis.

Going from B1 to B2, the “Anti-CD28 Fab signal (phage binding ELISA)” value rises from 1.05 to 1.06.

B3 and B4 are the same in “Anti-CD28 Fab signal (phage binding ELISA)” value: 1.04 for the first, 1.04 for the second.

B5 and B6 are the same in “Anti-CD28 Fab signal (phage binding ELISA)” value: 1.06 for the first, 1.06 for the second.

First: B7
Second: B8
The “Anti-CD28 Fab signal (phage binding ELISA)” value of the first is higher: 1.06 for the first, 1.04 for the second.

B9 and B10 are the same in “Anti-CD28 Fab signal (phage binding ELISA)” value: 1.05 for the first, 1.05 for the second.

First: B11
Second: B12
The “Anti-CD28 Fab signal (phage binding ELISA)” value of the first is lower: 1.04 for the first, 1.05 for the second.

In the case of B13, the “Anti-CD28 Fab signal (phage binding ELISA)” value is reported as 1.05.

target: T2, Anti-CD28 Fab (SEQ ID NOs: 696, 697); test: phage binding ELISA on plate-captured anti-CD28 Fab pre-incubated with CD28 antigen as competitor
T2 construct: In the phage ELISA the Fab was biotinylated and captured on neutravidin coated plates
T2 sequence (VH, as listed by the source, chain 1 of 2): as the sequence (VH, as listed by the source, chain 1 of 2) above
T2 sequence (VL, as listed by the source, chain 2 of 2): as the sequence (VL, as listed by the source, chain 2 of 2) above
Description: as §1, §2

Compared with B14, B15 is higher in “Anti-CD28 Fab signal in the presence of CD28 (phage binding ELISA)” value: 0.07 for the first, 0.11 for the second.

Going from B16 to B17, the “Anti-CD28 Fab signal in the presence of CD28 (phage binding ELISA)” value falls from 0.07 to 0.06.

B18 was tested, and the “Anti-CD28 Fab signal in the presence of CD28 (phage binding ELISA)” value was 0.06.

target: T1, Anti-CD28 Fab (SEQ ID NOs: 696, 697); test: phage ELISA; captured anti-CD28 Fab pre-incubated with CD28 antigen as competitor, anti-M13 HRP;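 note: crude clonal phage supernatants added without washing after CD28 pre-incubation, bound phage detected with HRP anti-M13 antibody, reference wells got blocking buffer lacking CD28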
Description: as §1, §2

B1 and B2 are the same in “Anti-CD28 Fab signal in the presence of CD28 (phage binding ELISA)” value: 0.07 for the first, 0.07 for the second.

First: B3
Second: B4
The “Anti-CD28 Fab signal in the presence of CD28 (phage binding ELISA)” value of the first is higher: 0.09 for the first, 0.08 for the second.

First: B5
Second: B6
The “Anti-CD28 Fab signal in the presence of CD28 (phage binding ELISA)” value of the first is lower: 0.06 for the first, 0.08 for the second.

Going from B7 to B8, the “Anti-CD28 Fab signal in the presence of CD28 (phage binding ELISA)” value falls from 0.08 to 0.06.

Compared with B9, B10 is higher in “Anti-CD28 Fab signal in the presence of CD28 (phage binding ELISA)” value: 0.06 for the first, 0.09 for the second.

B11 and B12 are the same in “Anti-CD28 Fab signal in the presence of CD28 (phage binding ELISA)” value: 0.06 for the first, 0.06 for the second.

B13 was tested, and the “Anti-CD28 Fab signal in the presence of CD28 (phage binding ELISA)” value was 0.06.

target: T3, Anti-CD28 Fab (SEQ ID NOs: 696, 697); test: phage binding ELISA on captured anti-CD28 Fab; competitor: CD28 antigen at saturating concentration
T3 construct: Biotinylated and captured on neutravidin coated plates in the phage ELISA
T3 sequence (VH, as listed by the source, chain 1 of 2): as the sequence (VH, as listed by the source, chain 1 of 2) above
T3 sequence (VL, as listed by the source, chain 2 of 2): as the sequence (VL, as listed by the source, chain 2 of 2) above
Description: as §1, §2

Going from B19 to B20, the “Anti-CD28 Fab signal in the presence of CD28” value rises from 0.06 to 0.07.

Compared with B21, B22 is lower in “Anti-CD28 Fab signal in the presence of CD28” value: 0.09 for the first, 0.07 for the second.

B23 and B24 are the same in “Anti-CD28 Fab signal in the presence of CD28” value: 0.06 for the first, 0.06 for the second.

Going from B25 to B26, the “Anti-CD28 Fab signal in the presence of CD28” value rises from 0.06 to 0.08.

First: B27
Second: B28
The “Anti-CD28 Fab signal in the presence of CD28” value of the first is lower: 0.06 for the first, 0.09 for the second.

Going from B29 to B30, the “Anti-CD28 Fab signal in the presence of CD28” value falls from 0.07 to 0.05.

In the case of B31, the “Anti-CD28 Fab signal in the presence of CD28” value is reported as 0.08.

target: T2, Anti-CD28 Fab (SEQ ID NOs: 696, 697); test: phage binding ELISA; clonal phage on plate-captured biotinylated anti-CD28 Fab, anti-M13 HRP detection
Description: as §1, §2

B14 and B15 are the same in “Anti-CD28 Fab signal (phage binding ELISA)” value: 0.98 for the first, 0.98 for the second.

B16 and B17 are the same in “Anti-CD28 Fab signal (phage binding ELISA)” value: 0.98 for the first, 0.98 for the second.

With B18 the “Anti-CD28 Fab signal (phage binding ELISA)” value was 0.97.

target: T3, Anti-CD28 Fab (SEQ ID NOs: 696, 697); test: phage binding ELISA; biotinylated anti-CD28 Fab on neutravidin plate, bound phage detected with anti-M13 HRP;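 note: crude supernatants of clonal phage screened, wells pretreated with blocking buffer with or without CD28 antigen before brief phage incubation, washed, then bound phage detected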
Description: as §1, §2

B19 and B20 are the same in “Anti-CD28 Fab signal” value: 1 for the first, 1 for the second.

First: B21
Second: B22
The “Anti-CD28 Fab signal” value of the first is lower: 1 for the first, 1.01 for the second.

First: B23
Second: B24
The “Anti-CD28 Fab signal” value of the first is higher: 1.02 for the first, 0.99 for the second.

B25 and B26 are the same in “Anti-CD28 Fab signal” value: 1.01 for the first, 1.01 for the second.

Going from B27 to B28, the “Anti-CD28 Fab signal” value rises from 0.99 to 1.03.

Compared with B29, B30 is higher in “Anti-CD28 Fab signal” value: 0.99 for the first, 1 for the second.

For B31, the “Anti-CD28 Fab signal” value was 1.04.

Source: patent US20260242478A1 (published 2026)
